Tests used:
Assay in all cases: cell-based or functional assay
[1] = molecular target: Salmon tac3 receptor (salmon)
[2] = molecular target: Tilapia tac3 receptor (tilapia)
[3] = molecular target: Zebrafish tac3 receptor (zebrafish)

In the case of Salmon NKB (slNKB) (peptide), the EC50 of SRE-Luciferase activity (COS7 cells expressing slNKB receptor) [1] is reported as 1.03 nM.

tilapia NKB (peptide) showed a luciferase activity (CRE-Luc, COS-7 cells transfected with salmon tac3r) [1] of 1.8 fold and a luciferase activity (CRE-Luc reporter, COS-7 cells transfected with tilapia tac3 receptor) [2] of 1.8 fold.

zebrafish NKB (peptide) was tested, and the CRE-LUC (COS-7 cells transfected with zebrafish tac3 receptor) [3] was greater than 3 fold.

Source: patent US20190169256A1
